The assay has as its target HLA-A*02:01. The assay can be described thus: IEDB peptide-MHC binding, purified MHC/competitive/radioactivity; ≥ and ≤ were set here for values at or beyond the usual limits of such assays. The settings on record: source organism: Homo sapiens.
With ALLAGLVSL, the IC50 (usually the concentration at which inhibition is half-maximal) is 0.0763 µM. With AVIGALLAV the figure was 0.0179 µM; with FLCWGPFFL, 0.0385 µM. FLLRWEQEI: the IC50 came out at 0.0256 µM.

FLPWHRLFL: the IC50 was determined as 0.112 µM.

With FLPWHRLFLL, the IC50 is 0.205 µM. With FLRNQPLTFA the figure was 0.139 µM. As to HLAVIGALL, the IC50 amounted to 0.106 µM. With LLAGLVSLL, the concentration for half-maximal inhibition (IC50) is 0.0952 µM. The result for NMVPFFPPV reads 0.0039 µM. With RIWSWLLGA the figure was 0.1 µM; with RLLGSLNST, 0.167 µM; with RLMKQDFSV, 0.0463 µM. With SLDDYNHLV the figure was 0.0263 µM; with SLHNLVHSFL, 0.263 µM; with SVMDPLIYA, 0.0833 µM. As for VLTALLAGL, the IC50 amounted to 0.082 µM.

For the sequence VMGTLVALV, the IC50 is 0.0278 µM. With VVMGTLVAL the figure was 0.0667 µM; with WLLGAAMVGA, 0.0321 µM. With YAIDLPVSV, the IC50 stood at 0.0156 µM. In the case of YVITTQHWL, the IC50 is 0.104 µM.

These data come from the Immune Epitope Database (IEDB).
